According to the DeepSol protein solubility set:

assay: soluble on expression in E. coli; label from the status in PepcDB or PDB records

Sequence | soluble on expression in E. coli
MQQRRPVRRALLSVSDKAGIVEFAQALSARGVELLSTGGTARLLAEKGLPVTEVSDYTGFPEMMDGRVKTLHPKVHGGILGRRGQDDAIMEEHQIQPIDMVVVNLYPFAQTVAREGCSLEDAVENIDIGGPTMVRSAAKNHKDVAIVVKSSDYDAIIKEMDDNEGSLTLATRFDLAIKAFEHTAAYDSMIANYFGSMVPAYHGESKEAAGRFPRTLNLNFIKKLDMRYGENSHQQAAFYIEENVKEASVATATQVQGKALSYNNIADTDAALECVKEFAEPACVIVKHANPCGVAIGNSILDAYDRAYKTDPTSAFGGIIAFNRELDAETAQAIISRQFVEVIIAPSASEEALKITAAKQNVRVLTCGQWGERVPGLDFKRVNGGLLVQDRDLGMVGAEELRVVTKRQPSEQELRDALFCWKVAKFVKSNAIVYAKNNMTIGIGAGQMSRVYSAKIAGIKAADEGLEVKGSSMASDAFFPFRDGIDAAAAAGVTCVIQPGGSIRDDEVIAAADEHGIAMLFTDMRHFRH | soluble
MSSRVLTPDVVGIDALVHDHQTVLAKAEGGVVAVFANNAPAFYAVTPARLAELLALEEKLARPGSDVALDDQLYQEPQAAPVAVPMGKFAMYPDWQPDADFIRLAALWGVALREPVTTEELASFIAYWQAEGKVFHHVQWQQKLARSLQIGRASNGGLPKRDVNTVSEPDSQIPPGFRG | soluble
MLGGYAHRIARIDLSTGQVEYFAPDPKDLEMYVGGRGLGVKYVFENGPQVDPLGPENLLCIMNGPLSGTRAKMSGRLAVVTKSPLTGTVTDSHMGGWTAAKLKWAGFDGLLIKGASEKPVYLLVKDGEVSIHDASDLWGKTTHETCRILRERHGEEADVMAIGPAGENLVRFANWINNDERAAGRGGTGAVAGSKKLKAIVVVGTHDKMPQPKDPELWKEADRLASATINDPKNVTAPKKGGLSLYGTNVLMNITNVMGALPTFNAQHTCIEGAEKISGEYIREHRLIKDNTCHACPVACKKMVEVHINGKTIRFESYEYESAWALGAHSGHTDTDWTGYAIYLCNAYGMDTIEAGNAIAVLMEATEKGYYQGEDGIRFGDKEGEIRVLEAIAYRKGVGDMLAEGPARFAKAIGHPEIALEVKGQSIPAYDPRGLKGMGIAYATSNRGACHLRAYTPASEILGVPYKTDPLAWEGKGKLTKLFQDLSAFTDSLDLCKFSQFAEGPEEYAKQLAAYWGRPVTPEEILRIGERIYNLERYYNNLAGWGEGSDYLPERFLKEPSDCAGSKGQVTELDRMLEEYYRERGWERGVVPPAKLQELGILSQAADD | soluble
SKQNPLKRKRNDEITEEKVVLLMAMHKEDDEHQHTKPSPPSWEILCLVGPYMDPESLAVASCVSTTWSKCFSSEDLWKSLPATRHSIFAKAITKEGAKPAWLSYKRLISEAESAAKRRRNNQPAEPKISLSDLVFIVHVSAGSKEAVVVKQGKDLVFGSNERFQIEADVRDSGFTADMKDVSMSWNVVLRNYERMFLMSETVIKSLDSMIGWFTDELPGTKNRYCDGSNLVGEVKPSFNEDVLDKVVFAIADSRNWKSLFVDDVLRYLQCFLVD | soluble
MSELILHHYPTSLFAEKARLMLGFKGVNWRSVTIPSIMPKPDLTALTGGYRKTPVLQIGADIYCDTALMARRLEQEKASPAFYPQGQEFAVAGLAAWADSVLFLHAVSLVFQPESMAVRFAKVPPDAAKAFIADRSMLFNGGTASRPPVEQVKHQWPTFMSRLESQLSHGGDFLFGAPSIADFSVAHTLWFLKQTPVTAPFVDDYPSVSVWLDRVLGFGHGSLSDLSSAAAIEIASNATPAPLPDETFIDPNGFKAGDKVAIAAVDYGVEAVEGELMFTGREELILRREDNRAGVVHVHFPRLGFRVEKR | soluble
MKGIMVQGTASDVGKSLICTALCRIFARRGYKVTPFKSQNMSNNSYITVEGLEIGRAQGIQAEAAMEEASVYMNPILLKPRNDREAEIVCFGQAVDTVSGVKYRDGFYKRGLEAIKQALATLSQSFDMVVIEGAGSPVEVNLNDRELVNMKVAELADVPVILVADIERGGVFASLYGTLELLQPNERKRVVGIIVNKFRGDPELFSSGVQWIEQHLGVPVLGVLPHLPGVRIEGEDSLSKGQVTSVLPRDQSIDIAVLDLPYLSNYTDLEPFRYEEDVAIRFVSSVDALGRPDAIILPGTKSTFHDLQILKEKGFKERLHEYVTTDGTVVAICGGFQMLGHRLIDVAGSDTGIKGATIDGLDLAPVETRFAEKKKTVRSLGQLLHPFGTAKDIYGFEIHLGETDIVDPSIPAFLRVGNHTDGVYLHEGRLIGTYFHHLFFNDDFRSGWLNTLRRKKGLRERPTVELEKCRRASYDQLADEVERVLHVDSLLEKMERWGETS | soluble
MAQHFRLSTAARQLSSDSLVCLPDAEIFQRLKQARWGNADNFVCPHCHIRHLAYFISTRKQWQCKHCQHRFSITAGTIFQGAKLPLRKILLAILYFATESKGLSAIALSHKLNVQYKTAWVLLHKFRESLDKAKDLTPLNGEVHIDGAYTNYYIRPKNFRHKRIDRRKKRYQRADKSCVLVFRQRAANQAVMKGADRSIVALVKEENTKDVLELTQRLVKPNSTIHADENPAYDCLAFHYDLWRVNHSQEYRSIEGITNNLAESFFARLRRAITGIYHKMSNKYLMYYANEMVWREDHRRKSVKEKFEQLLTCCLNTLPSRDFTGYWQGNKKGEAVFGLASLTASNDLHYLKAALEHHHHHH | soluble
MGSDKIHHHHHHMWKELVESISNDMDNVDECFRPTHFWRMGAEYLQQDLDTYGITKFRSLPSTLGYFVPTYLFNGMITEPKKYAELASRCQDIVVTPKAKLFMTDFLSGESQARADFRVYLASQSNRAPYTEHFSESKVGEPVEHFEFEGRNYSRSSLNYLLGINFLKQHISDLSVKTVVEIGGGFGSLGEILLSDERNDTFYINVDIPPTCIFSTFYLQSVFGQSHVADYSVLSKQALVIDDLRSKHKAAIMCPWQLPSLEGKIDLFVNFISFQEMEPDIVENYLSEIDRLQSTYILLRNLREGKQLAHDDSQVGVKKAIKSDDYDKFLPDYELLATNVLPFGYQTIDGFHSELRLYRRKQPKLG | not soluble
MKKAALMLITFLGLTACSQGVTSMPDRTQTPCGNKPNCVSTQDQREEHHLEPFTLTESATLDAIEQAALQLSGAKTAEKDGNYLRIECTSKIMRFVDDLELKIDGNTLIVRSESRVGYSDFGVNRKRAEQLRTELSKAELIKLEHHHHHH | not soluble
DVFQNKANVCWAKALVPVLKTAGIDMTTEQWNTVDYFETDKAHSAEIVLNQLCVRFFGLDLDSGLFSAPTVPLSIRNNHWDNSPSPNMYGLNKEVVRQLSRRYPQLPRAVATGRVYDMNTGTLRNYDPRINLVPVNRRLPHALVLHHNEHPQSDFSSFVSKLKGRTVLVVGEKLSVPGKMVDWLSDRPEATFRARLDLGIPGDVPKYDIIFVNVRTPYKYHHYQQCEDHAIKLSMLTKKACLHLNPGGTCVSIGYGYADRASESIIGAIARQFKFSRVCKPKSSLEETEVLFVFIGYDRKARTHNPYKLSSTLTNIYTGS | soluble
MSLQINVNPQAALSQNAIVNNSSFSLVSKDVRSAQYVALVDSGRNNIEPIHPRQNVRITLENALAEQFGSQGFRLSVNSENTITLEIQELLVSVKHSIMENQMDGSVVLEITAETPRGKLVKSYTGTAKRTGVLSASNDEIETVLNDVINTVLKEIANDAELQNYMQERFNGEGHHHHHH | soluble
ATPAAQASDDRYEVTQQRNPDAACLDCHKPDTEGMHGKHASVINPNNKLPVTCTNCHGQPSPQHREGVKDVMRFNEPMYKVGEQNSVCMSCHLPEQLQKAFWPHDVHVTKVACASCHSLHPQQDTMQTLSDKGRIKICVDCHSDQRTNPNFNPASVPLLKEQP | soluble
MGSDKIHHHHHHHKKTFDYIFNKTEAITLEQSKLTLSKDITVLSFSDSSMVDRNSSIIKVDSGWIVYSKNSESSILSFTSDGQFSGYIGHRGNGPGEYTSVYDVVVNQKSKVLEVLSDGGIFCYTFGGDFLDKKEVTYPAFSFAIDDRQNYWFYVGNNTTYGDAKMICTDENIANVAYYLHQKSNMLPMVENNFGRNGEWLTFHESLNHDLYTIENGKLDLSYAMDFPNYKLPKKLHELSGMEVIEELQRSNYASIINYLENHDYIFLNVLLNNEGERIPEVYYWIISKNLQEEVIIKIDGGISAESYLFNTQYLSNDNKLYCLGYIWENKDVESFEENLNPSVVALEFNELFSKVR | not soluble
MNQILNKLQHIKPIEIIIVADDRMSAIQSIPTFVECNVVVIEEKNKWKAPVHGAKVANGDVVLFLDGEDVIFSVELERFIEPLLKKEQDVILNNIDSVCFEKMRVEWPSIAMVYRKIVNDVLGRMDLKYDSMLSMPYAITKKAIKDIGYDILQNPILSQVTLIEKGWPLHSSSAITNTSLNNITSNNTSFYKNELTKLEVCEIKENVKALESWLQRKDDRGNYTDGGRKREVIEQLKKQKNYSLFHKGWGMNSSIYNGKQLSIIIPAQNEEATIKEVILEARKIEPKEIIVVINGSTDQTEAIAKQLGATVIVYEEALGHDVGRAIGAQEATGDILLFIDADFAIPAKDLHPLTKAVVDGVDIALNDLNLNLRFPLYIVNLYKYMLNIACNRKDLGVGSTIAVPHAISRKCLEGIGWDTLHTSCVAQVKAILEGYKVECVHFVDVMKPNRIRPQEHFATIGHPPAVLRITGDHLEGLSYLLKHRDFKDLF | not soluble
MSLRPVKLAALLPLTGPFAFAGNAGREGFVDGVDYVNEVLGGIAGRKLELIVEDTGYDVAKGTAAFNRVLSRERPDELLFVYGDSTGLSKALAPEIARIGLPYSATSFANELADPEKYPTIFVFGPTYNDMMEALLRQIRLQKGKARIALVYSNTEFGRDPIPYVKERAKALGMEVVHEEVTPPAFTDATPVVLNLRRANPDFVLLQGYALSAEPLILRAAREQGLRAQFMGTYYSAELVLIQRAGPAAEGFTVTYHNPYWYDTLVPAVDEMRKFRQRKGRDSSYRPTYYMGSLAVALGVAEAMRRAAQAGKLTRAGVVEYLEKIGDYNAMGLVRGYQFVNHRIPYTKLYRASVKDGRFNAITDWLKLAEGHHHHHH | soluble
MSLEAGAGAPLARYAAWRRAGDFIFLSGIIPVNPLTGTIVNGFQDVPEPVRELLGATGEFSTDAKQGPILAQSWYVLESIRRTVASAGGQMSDVIKLVQYFRNLDHFPYYSRVRKLFYPDQPPVSTVVQVSEMLPDATVLIEVEATVWLPPSFNSEAEGHHHHHH | soluble
MGSSHHHHHHGKTIFVIVPTNEEQVAFLEALAKQDELNFDWQNPPTEPGQPVVILIPSDMVEWFLEMLKAKGIPFTVYVEEGGSENLYFQGGGGGGFYVRTPGKRLLEDKVGKDGLSHYSSEFSSRSSSAELKESRASKCSTTTKRSFAENAAGGTADSSKSHRSMPEVVSAQSQHSKTTGSHKRD | soluble
MSLNVLIVDDEANIRKTLTVFMESRGHRVKAVSNSRDACAEAEQQVFDLAFVDIRLGIESGLDLERSLLNACPWIKIVIITAYASIETAVEAMKRGASDYLAKPFTPDQLESITARLAEVCAMEMRIASLQEDLNRMHPEVYFTSRYPSMQRAIELSRQVALSDALVLLRGPSGTGKTVLARSIHNWSQRKEEPFGVVSCPSLSTELLESELFGHVKGSFPGAVRDKPGRVTLCEGGSLFLDEIGDLPLSIQAKLLRFIQDREYERIGDHQTRKADVRIIAATNTNLDLAVREGEFREDLFYRLNGIQIDLPTLAERPNDVEQLALNMLQFFAAQNLKNFDGFTEEARTALRTYSWPGNIRELRNVMERAVILGKNGQIGIELLPDSIVAKTHPVTEGHHHHHH | soluble
MAGDPMKLQKSNHTILLVLEKGEDIVECITTFADDQDLTFTSVSGIGACDDVVLKFFNLTTKQYEEKHITEPLELTSLLGNISRLDNGHFAHLHATFGTQSYETFSGHLAKAIVSATAEIILTVTDLDIQRSFKDAVGLNLLDPQLEHHHHHH | soluble
